Biological target: BTLA (B and T lymphocyte attenuator) on human lymphoma B cells (human, UniProt Q7Z6A9 31-289)
Assay: cell-based or functional assay

correlation of percent pSyk inhibition by solHVEM with BTLA surface expression (ratio of MFI), ten primary human FL B cell samples: 0.697 r
B1: Leu39-Val202 soluble HVEM ectodomain polypeptide (receptor)
chain: LPSCKEDEYPVGSECCPKCSPGYRVKEACGELTGTVCEPCPPGTYIAHLNGLSKCLQCQMCDPAMGLRASRNCSRTENAVCGCSPGHFCIVQDGDHCAACRAYATSSPGQRVQKGGTESQDTLCQNCPPGTFSPNGTLEECQHQTKCSWLVTKAGAGTSSSHWV

— patent US20190071487A1 (Memorial Sloan Kettering, published 2019)
